Biological target: recombinant natriuretic peptide receptor B (NPR-B) (UniProt P20594)
Assay: SPR; recombinant NPR-B immobilised on a CM5 chip by amine coupling (10 ug/mL, 10 mM sodium acetate pH 4.5); CBD-CNP injected at 1.25, 2.5, 5.0, 10 and 20 uM in 50 mM Tris HCl pH 7.5, 200 mM NaCl, 1 mM CaCl2; Biacore X; single-cycle kinetics, 1:1 Langmuir model

Sequence of UniProt P20594 (P20594 23-458): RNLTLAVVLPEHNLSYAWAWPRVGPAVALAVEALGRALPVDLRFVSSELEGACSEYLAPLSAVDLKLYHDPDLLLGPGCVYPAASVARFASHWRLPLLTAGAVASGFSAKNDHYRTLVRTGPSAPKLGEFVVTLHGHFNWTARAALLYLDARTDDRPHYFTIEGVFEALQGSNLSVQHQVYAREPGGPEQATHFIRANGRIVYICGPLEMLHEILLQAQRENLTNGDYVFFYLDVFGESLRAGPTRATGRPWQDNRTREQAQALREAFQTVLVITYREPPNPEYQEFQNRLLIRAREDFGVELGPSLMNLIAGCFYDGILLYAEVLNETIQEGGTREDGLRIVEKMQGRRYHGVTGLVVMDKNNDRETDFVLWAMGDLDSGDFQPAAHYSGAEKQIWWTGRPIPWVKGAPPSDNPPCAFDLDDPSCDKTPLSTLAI

With “CBD-CNP (collagen-binding domain fused to C-type natriuretic peptide CNP-37) (from UniProt Q9X721 1003-1118)” the Kd was 495 µM.
